According to the supplement of paper PMC10899765:

What was measured:
Settings in all cases: 20 nM; 72 h
[1] = test system: MCF10A; experiment: 5+ nucleoli phenotype percent effect (relative to siNT 0% and siKIF11 100%); higher = more cells with five or more nucleoli
Description: (§1)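 After 72 h, cells were fixed and stained with Hoechst and anti-fibrillarin, and nucleoli per nucleus were counted with CellProfiler. Values are plate-adjusted percent effect for the one-nucleolus and 5+ nucleoli phenotypes, normalised to siNT (0%) and to the positive controls siNOL11 or siKIF11 (100%), as the mean of biological triplicates. Percent viability is the nuclei count relative to siNT.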

[2] = test system: MCF10A; experiment: one-nucleolus phenotype percent effect (relative to siNT 0% and siNOL11 100%); higher = more cells with one nucleolus (ribosome biogenesis inhibition)
Description: as §1

[3] = test system: MCF10A; experiment: percent viability (nuclei count relative to siNT); higher = more viable cells
Description: as §1

| Sequence | 5+ nucleoli phenotype percent effect [1] [%] | one-nucleolus phenotype percent effect [2] [%] | percent viability [3] [%] |
| --- | --- | --- | --- |
| UCACCAGCCCUGUGUUCCCUAG [hsa-miR-1226-3p] | -42.2 | 33.5 | 31.7 |
| UGCCCAUGCCAUACUUUUGCCUCA [hsa-miR-4641] | 7.52 | 5.53 | 78.6 |
| ACUGGACUUGGAGCCAGAAG [hsa-miR-378f] | 33.7 | -12.4 | 45.3 |
| GAAUAUGGGUAUAUUAGUUUGG [hsa-miR-5583-3p] | 43.7 | -14.1 | 65.4 |
| GGGAUGGUAGACCGGUGACGUGC [hsa-miR-1193] | -23 | 19.2 | 24.3 |
| CUCACUCUCAGUCCCUCCCU [hsa-miR-6794-3p] | 27.6 | -18.1 | 88.6 |
| AGGGGGAUGGCAGAGCAAAAUU [hsa-miR-5010-5p] | -7.77 | 13.7 | 44.2 |
| AUGGCCAGAGCUCACACAGAGG [hsa-miR-4435] | 40.9 | -11.4 | 68 |
| CAAUGUGAUCUUUUGGAUGUA [hsa-miR-8066] | -37.9 | 56.9 | 30.2 |
| CAGGUCACGUCUCUGCAGUUAC [hsa-miR-370-5p] | 5.92 | -14.6 | 54.3 |
| CUGUAUGCCCUCACCGCUCA [hsa-miR-675-3p] | -14.5 | 0.624 | 37.8 |
| GCCCAGGACUUUGUGCGGGGUG [hsa-miR-6840-3p] | 16.2 | -16.9 | 117 |
| GGUUGGGCAGUGAGGAGGGUGUGA [hsa-miR-3147] | 31 | -13.3 | 26 |
| UGUGGACAGUGAGGUAGAGGGAGU [hsa-miR-3138] | 2.7 | -2.72 | 47.9 |
| UGCCAACCGUCAGAGCCCAGA [hsa-miR-5189-3p] | -12 | -1.7 | 59.9 |
| GCCCUCUGUCACCUUGCAGACG [hsa-miR-2276-5p] | 60.2 | -20.8 | 103 |
| CAUGACGUCACAGAGGCUUCGC [hsa-miR-4757-3p] | 36.1 | -14.4 | 61.2 |
| UCUCAGCUGCUGCCCUCUCCAG [hsa-miR-6787-3p] | 41.8 | -24.6 | 116 |
| UGAAGUUACAUCAUGGUCGCUU [hsa-miR-4670-3p] | -11.4 | 2.16 | 36.1 |
| UCCCCCAGGUGUGAUUCUGAUUU [hsa-miR-361-3p] | 21.5 | -5.19 | 74.8 |

| Sequence | 5+ nucleoli phenotype percent effect [1] [%] | one-nucleolus phenotype percent effect [2] [%] | percent viability [3] [%] |
| --- | --- | --- | --- |
| ACGGGGAGUCAGGCAGUGGUGGA [hsa-miR-6777-5p] | -32.1 | 32 | 28.5 |
| CUUGAGUCGUGCCUUUCUGAAUG [hsa-miR-8081] | -17.9 | 14 | 95.5 |
| UGAAGCCAGCUCUGGUCUGGGC [hsa-miR-4786-3p] | -24 | 25 | 29 |
| CAAACCACACUGUGGUGUUAGA [hsa-miR-497-3p] | 4.48 | -11.5 | 49.6 |
| UGCGCCUCGGGUGAGCAUG [hsa-miR-668-5p] | 37.3 | -14.2 | 43.2 |
| UGAGGGAGUGGAUUGUAUG [hsa-miR-6130] | -15.2 | -1.2 | 16.7 |
| UUUCUGUCUUUUCUGGUCCAG [hsa-miR-4743-3p] | -25.7 | 57.9 | 17.7 |
| UCUUCAACCUCAGGACUUGCA [hsa-miR-676-5p] | 37.9 | -20.5 | 56 |
| AUUCCUAGAAAUUGUUCAUA [hsa-miR-384] | 23.8 | -8.73 | 107 |
| CAUCUUACUGGGCAGCAUUGGA [hsa-miR-200b-5p] | 0.989 | -11.1 | 73.7 |
| AGUGCCUGAGGGAGUAAGAG [hsa-miR-550a-3-5p] | -17.5 | 3.47 | 79.3 |
| GCCUGGAGCUACUCCACCAUCUC [hsa-miR-4254] | 11.1 | 7 | 26.1 |
| UGGUUCUCUUGUGGCUCAAGCGU [hsa-miR-597-3p] | -23 | 44.1 | 22.4 |
| CGUCAACACUUGCUGGUUUCCU [hsa-miR-505-3p] | -7.84 | 22.4 | 33.8 |
| AGCCGCUCUUCUCCCUGCCCACA [hsa-miR-6743-3p] | 35.5 | -1.42 | 58 |
| CUGGUUUCACAUGGUGGCUUAG [hsa-miR-29b-2-5p] | 7.64 | -3.17 | 43.4 |
| CAUAGCCCGGUCGCUGGUACAUGA [hsa-miR-3651] | -7.1 | 17.1 | 70 |
| UCUGAGAGAGCUCGAUGGCAG [hsa-miR-6761-5p] | 9.71 | -17.3 | 56.8 |
| UACUUUUCUAGGUUGUUGGGG [hsa-miR-5003-3p] | -39.5 | 55.6 | 24.9 |
| CUGGGAGGUGUGAUAUCGUGGU [hsa-miR-3689a-3p] | 27.1 | 27.5 | 12.5 |

| Sequence | 5+ nucleoli phenotype percent effect [1] [%] | one-nucleolus phenotype percent effect [2] [%] | percent viability [3] [%] |
| --- | --- | --- | --- |
| UGGGAAAGAGAAAGAACAAGUA [hsa-miR-6739-5p] | 33 | -11.2 | 51.5 |
| UCUUGUGUUCUCUAGAUCAGU [hsa-miR-581] | 2.53 | -3.72 | 82.2 |
| AGGGCUGGACUCAGCGGCGGAGCU [hsa-miR-5001-5p] | -6.45 | 23.3 | 42.6 |
| UGGGGAGCUGAGGCUCUGGGGGUG [hsa-miR-939-5p] | 17 | -7.29 | 82.5 |
| GGGUGAGGGCAGGUGGUU [hsa-miR-4710] | 22.2 | 17.1 | 19.2 |
| UAAAUUUCACCUUUCUGAGAAGG [hsa-miR-513a-3p] | -3.52 | 18 | 49 |
| AAUUCUGUAAAGGAAGAAGAGG [hsa-miR-4778-5p] | 32.3 | -8.03 | 74.3 |
| UAUGGAGGUUCUAGACCAUGUU [hsa-miR-4802-5p] | 7.79 | 26.9 | 22.7 |
| GCCCUGAACGAGGGGUCUGGAG [hsa-miR-345-3p] | 29.8 | -13.5 | 61 |
| AAAGACAUAGGAUAGAGUCACCUC [hsa-miR-641] | 1.49 | -15.4 | 213 |
| CCGGUUCCAGUCCCUGGAG [hsa-miR-6070] | -6.27 | 16.9 | 55.6 |
| UUGCUCUGCUCCCCCGCCCCCAG [hsa-miR-6805-3p] | 43.1 | -15.8 | 36.2 |
| UAAUGAUUCAUCAGACUCAGAU [hsa-miR-580-5p] | -17.8 | 14 | 32.9 |
| CAUCUGGGCAACUGACUGAAC [hsa-miR-1298-3p] | -17.1 | 57 | 7.06 |
| GAAGAUGGACGUACUUU [hsa-miR-4426] | -32.9 | 31.4 | 28.5 |
| ACAACAGUGACUUGCUCUCCAA [hsa-miR-4709-5p] | -18.3 | 3.79 | 73.8 |
| CAAGAACCUCAGUUGCUUUUGU [hsa-miR-548b-3p] | 39 | -16.6 | 83.5 |
| UCAUCCUCGUCUCCCUCCCAG [hsa-miR-5196-3p] | -6.21 | -13.1 | 44.3 |
| UGCUGCCUCUCCUCUUGCCUGCAG [hsa-miR-6882-3p] | 44.3 | -22.8 | 45.6 |
